{"source": "patent US20250302947A1", "about": "“M-cell GP2-mediated lymphatic-targeted drug carriers” (Hong Kong Baptist University, priority 2022, published 2025)", "key": {"[1]": {"assay": "Dynamic distribution of FITC-labeled polysaccharides in the gastrointestinal system and organs of mice after gavage", "format": "in vivo", "conditions": "0 to 5 h after gavage", "method": "FTIC-RAP (10 mg in 1 mL distilled water) was orally administrated to each mouse (n=6). After the mice were sacrificed at 0, 1, 2, 3, 4, and 5 h after oral administration, blood and major tissues, including liver, spleen, kidney, stomach, small intestine, mesenteric lymph nodes (MLN), Peyer's patches (PPs), caecum, and colon, were collected and imaged using an IVIS Lumina XR in vivo imaging system (PerkinElmer) immediately. The molecular size of FITC-RAP was monitored using high-performance gel-permeation chromatography. For Western blotting (WB), PPs from different groups were collected at other time points (0, 1, 2, 3, and 4 h after oral administration) and prepared for WB. For ELISA assay, PPs were collected 24 hours after RAP treatment, then homogenized and centrifugated at 15,000 rpm for 10 min to obtain the supernatant for cytokine production assessment using ELISA kits. Similarly, the dynamic distribution of FITC-DOP control in MLN and PPs was investigated.\n(§1) The tissues collected from the above dynamic distribution analysis were homogenized using a 3-fold volume of 0.1 mol/L phosphate buffer (pH 7.4) and centrifuged at 15,000 rpm for 10 min. Especially, the PP collected from the ligated loop assay model were homogenized using 200 μL PBS and centrifuged at 15,000 rpm for 10 min. The supernatant was collected and stored at −20° C. for chromatographic analysis. The separation was achieved on a TSK GMPWXL column (164× 7.8 mm i.d., 10 μm) system operated at 40° C. using an Agilent-1100 HPLC system equipped with FLD. Ammonium acetate aqueous solution (20 mM) was used as a mobile phase at a flow rate of 0.6 mL/min. The excitation wavelength and emission wavelength of FLD were 495 and 515 nm, respectively.\nThe intestinal contents of BALB/C mice that had received oral doses of RAP (100 mg/kg/mice) were collected at 0, 1, 2, 3, 4, 5 h after oral administration (n=6 each group) for carbohydrates detection by the phenol-sulfuric acid method. […] The plate was then cooled to RT and wiped dry to detect at A490 nm by a microplate reader. […]"}, "GP2+M cells of PPs": {"test_system": "GP2+M cells of PPs", "assay": "Ligated intestinal loop assay with FITC-RAP", "format": "in vivo, C57BL/6 mice", "method": "as §1\nC57BL/6 wild-type (WT) mice, and GP2^−/− C57BL/6 mice were anesthetized using isoflurane. To prepare ligated intestinal loops, incision was made near the linea alba of the abdomen to expose the small intestine. FITC-RAP (10 mg/mL) in 100 μl PBS was injected into the ligated intestinal loop. The mice were kept under anesthesia for 1 h after the injection. PPs were excised and rinsed with PBS 5 times. The cleaned PPs were photographed using an IVIS Lumina XR and then processed for HPGPC-FLD analysis, whole-mount staining, sectioning, and further microscopic analysis.\nFrozen sections of PPs from the ligated loop assay were washed three times with PBS and blocked with 5% normal goat serum in PBS for 1 h. Sections were incubated with anti-mouse GP2, anti-mouse NKM 16-2-4 antibody, or anti-mouse CD11c antibody overnight at 4° C. PPs sections were washed three times with PBS and then treated with Alexa Fluor647 secondary goat anti-rabbit, […] anti-rat antibodies for 1 h at RT, followed by three consecutive PBS washes. The cell nuclei were stained with 1 μg/mL 4′,6-diamidino-2-phenylindole (DAPI) for 15 min. Sections were washed three times with PBS and mounted with an anti-fade mounting medium. Images were captured with a Leica TCS SP8 confocal laser scanning microscope.\nFor whole-mount staining, mouse PPs were isolated from the small intestine and washed 3 times with 1×ice-cold PBS. The PPs were fixed in 4% paraformaldehyde overnight at 4° C. and then permeabilized with 0.1% Triton X-100 for 30 min. PPs were blocked with 5% normal goat serum in PBS for 1 h. A primary rat anti-mouse glycoprotein 2 (GP2) and 1 μg/ml DAPI in PBS were used to incubate PPs for 1 h at RT, followed by rinsing 3×5 mins with PBS. The second goat anti-rat IgG antibody conjugated with Alexa647 was further stained for 1 h at RT. PPs were washed 3×5 mins with PBS and mounted with the anti-fade reagent. Images were analyzed and captured by a confocal laser microscope (SP8, Leica Microsystems).\nFor the detection of RAP-induced immune responses, tumor tissues and PPs were minced into small pieces and grounded with a syringe plug. For the isolation and identification of M cell, PPs and small intestine segments collected from FITC-RAP-treated mice were incubated in PBS with 0.5 mM EDTA and stirred at 37° C. for 20 min. For the isolation and detection of dendritic cells, PPs collected from WT mice and GP2--mice were ground with a syringe plug. Tissues and cells were collected and rinsed with ice-cold PBS at 400 g for 5 min, followed by filtering through a 70 μm filter. Single cell suspensions were prepared for antibody staining. Cells were incubated with antibodies or the matching isotypes for 25 min at RT. The stained cells were rinsed twice and re-suspended in PBS and analyzed by FACSAria III (BD Biosciences). Data analysis was performed with FlowJo V10 software."}, "[2]": {"test_system": "GP2+M cell (M-like cells)", "assay": "In vitro M-cell-like model (Caco-2 / Raji B co-culture on transwell inserts)", "format": "cell-based, human", "conditions": "confocal microscopy", "method": "Caco-2 cells were grown in flasks in 10% (v/v) fetal calf serum DMEM at 37° C. under a 10% CO2 water-saturated atmosphere. Caco-2 cells were grown on Transwell polyester inserts (0.3 μm pore size, 12 mm diameter, Corning Costar) coated with 100 μg/mL matrigel basement membrane matrix phenol red-free (Becton Dickinson), prepared in pure cold DMEM without phenol red. Raji B cells (5× 10^5) were resuspended in DMEM and added to the basolateral chamber of 7-day-old Caco-2 cell monolayers. The co-cultures were maintained for 5 days. Mono-culture of Caco-2 cells, cultivated as above but without the Raji B cells, were used as control. […] The transportation function of this in vitro M cell model was first validated using nanoparticle. FITC-RAP (2 mg/mL) in 400 μl DMEM were added to the upper layers of mono-culture and co-culture inserts and then incubated for 2 h at 37° C. under 5% CO2. All inserts were removed, and lower solutions were collected for chromatographic analysis. The lower solution collected from the co-culture group treated with unlabeled RAP was further used to treat RAW264.7 cells in a 96-well plate for 24 h, and the supernatants were sampled for IL-6 and IL-12 detection using ELISA kits.\nThree co-culture and mono-cultures inserts were used to detect the presence of M-like cells by immunofluorescence. […]"}, "human GP2+M cells": {"test_system": "human GP2+M cells", "assay": "Ligated loop assay on human distal ileum explants with PPs", "method": "Twenty volunteers who needed surgery were enrolled in this study. The age of the participants ranged from 20 to 50 years. All distal ilea of the small intestine were collected after their surgeries. Twenty samples of the small intestine with PP were used in this study. In brief, the small intestines with PPs were stored in ice-cold PBS with 5% FBS after surgery. The small intestine segment was ligated with a surgical suture for the ligated loop assay. It then was injected with 10 ml FITC-RAP solution (5 mg/ml) followed by incubation at 37° C. under 5% CO2 for 2 h. PPs were collected for whole-mount staining, preparation of frozen sections, and immunofluorescence staining."}, "[3]": {"test_system": "F4/80+ macrophages / CD34+ cells in the bone marrow", "conditions": "mouse, in vivo, po"}, "[4]": {"test_system": "F4/80+ macrophages / CD34+ cells in the bone marrow", "conditions": "mouse, in vivo; cited from earlier work"}, "[5]": {"conditions": "C57BL/6 wild-type mice, 1 hr after injection"}}, "data": [{"substance": "FITC-RAP: RAP labeled with fluorescein isothiocyanate isomer I (FITC)", "values": [{"measurement": "fluorescence in the liver, kidney, spleen, mesenteric lymph nodes (MLN), and circulation", "setting": "[1]", "result": "no detectable increase"}, {"measurement": "integrity in the caecum and colon (gel permeation chromatography)", "setting": "[1]; 100 mg/kg", "result": "immediately degraded"}, {"measurement": "integrity in the small intestine (gel permeation chromatography)", "setting": "[1]; 100 mg/kg", "result": "remained intact in the small intestine for several hours"}, {"measurement": "integrity in PPs (HPGPC-FLD)", "setting": "GP2+M cells of PPs; [5]", "result": "undegraded form"}, {"measurement": "localization in gut loop (whole animal imaging)", "setting": "GP2+M cells of PPs; [5]", "result": "concentrated in regions associated with PPs"}, {"measurement": "positive signals of FITC-RAP in PPs, GP2-/- versus WT mice", "setting": "GP2+M cells of PPs; GP2-/- mice, IVIS imaging, HPGPC-FLD", "result": "significantly decreased"}, {"measurement": "internalization into M cells (whole-mount confocal images)", "setting": "GP2+M cells of PPs; wild-type mice", "result": "internalized into M cells"}, {"measurement": "uptake by GP2+M cells versus other intestinal epithelial cells (flow cytometry)", "setting": "GP2+M cells of PPs; wild-type mice", "result": "GP2+M cells instead of other intestinal epithelial cells accumulated FITC-RAP"}, {"measurement": "co-localization with GP2 receptors on the M cell apical surface (frozen sections)", "setting": "GP2+M cells of PPs; wild-type mice, confocal microscopy", "result": "precisely co-localized"}, {"measurement": "internalization by GP2+M cell in co-culture inserts", "setting": "[2]", "result": "internalized by GP2+M cell"}, {"measurement": "co-localization of FITC-RAP puncta with GP2", "setting": "human GP2+M cells; human PP domes, whole-mount staining", "result": "most of which were positive for GP2"}, {"measurement": "transport into human PPs by M cells", "setting": "human GP2+M cells; human distal ileum explants, 5 mg/ml, 2 h", "result": "could be transported into PPs"}, {"measurement": "binding to F4/80+ macrophages in the bone marrow", "setting": "[3]", "result": "could also bind"}, {"measurement": "binding to CD34+ cells in the bone marrow", "setting": "[4]", "result": "binding with CD34+ cells in the bone marrow"}]}]}
